From publication PMC10256154, “An unbroken network of interactions connecting flagellin domains is required for motility in viscous environments” (PLOS Pathogens, 2023)

Target: the molecule itself
Test: SEC; Superdex 200 Increase 10/300 GL; recombinant full-length FliC proteins after NiNTA, PBS buffer

B1: full-length FliC Δ204–205 of P. aeruginosa PAO1, recombinant (natural protein)
chain: MALTVNTNIASLNTQRNLNASSNDLNTSLQRLTTGYRINSAKDDAAGLQISNRLSNQISGLNVATRNANDGISLAQTAEGALQQSTNILQRIRDLALQSANGSNSDADRAALQKEVAAQQAELTRISDTTTFGGRKLLDGSFGTTSFQVGSNAYETIDISLQNASASAIGSYQVGSNGAGTVASVAGTATASGIASGTVNLVGQVKNIAIAAGDSAKAIAEKMDGAIPNLSARARTVFTADVSGVTGGSLNFDVTVGSNTVSLAGVTSTQDLADQLNSNSSKLGITASINDKGVLTITSATGENVKFGAQTGTATAGQVAVKVQGSDGKFEAAAKNVVAAGTAATTTIVTGYVQLNSPTAYSVSGTGTQASQVFGNASAAQKSSVASVDISTADGAQNAIAVVDNALAAIDAQRADLGAVQNRFKNTIDNLTNISENATNARSRIKDTDFAAETAALSKNQVLQQAGTAILAQANQLPQAVLSLLR
notes: Cloned in pET28-a with a C-terminal polyhistidine tag; source: E. coli BL21(DE3), purified (NiNTA, size-exclusion chromatography)
Q: Which “stoichiometry N” value does the source give for B1 here?
A: 2
